Experimental data from paper PMC11344481 (Journal of proteome research, 2024).
Blank lines part the entries; values can stand above or below the molecule they belong to.

Experiments:
[1] = molecular target: malate dehydrogenase (human (endogenous in heart tissue)) (UniProt P40925); experiment: native MS
native MS = molecular target: the molecule itself; experiment: native MS

stoichiometry N [1]: 2
Molecule: malate dehydrogenase (from UniProt P40925 1-334) (enzyme)

B1: S100-A1 (natural protein, human (endogenous in heart tissue), UniProt P23297 2-94, looked up)
chain: GSELETAMETLINVFHAHSGKEGDKYKLSKKELKELLQTELSGFLDAQKDVDAVDKVMKELDENGDGEVDFQEYVVLVAALTVACNNFFWENS
modifications: N-terminal methionine removed and N-terminus acetylated (primary proteoform)
stoichiometry N (native MS): 2
